The results in this text go back to patent publication US20050164933A1 (NONO, published 2005).

The target of the experiment is …. Kind of experiment: G assay.

B1: GST-PAR3 PDZ domain 3 fusion protein (other, not shown: a dimerising Fc or GST; small tags and cut ends)
chain: PREFLTFEVPLNDSGSAGLGVSVKGNRSKENHADLGIFVKSIINGGAASKDGRLRVNDQLIAVNGESLLGKTNQDAMETLRRSMSTEGNKRGMIQLIVASRISKCNELKSNSS
notes: also called PAR3 d3 (278.1); PAR3 d3
Consider B1, for which the binding result was “binds”.

B2: GST-ZO-1 PDZ domain 2 fusion protein (other, not shown: a dimerising Fc or GST; small tags and cut ends)
chain: ISSQPAKPTKVTLVKSRKNEEYGLRLASHIFVKEISQDSLAARDGNIQEGDVVLKINGTVTENMSLTDAKTLIERSKGKLKMVVQRDRATLLNSS
notes: also called ZO-1 d2 (241.3); ZO-1 d2
On to B2, for which the binding result is reported as “binds”.

B3: GST-RIM2 PDZ domain 1 fusion protein (other, not shown: a dimerising Fc or GST; small tags and cut ends)
chain: TLNEEHSHSDKHPVTWQPSKDGDRLIGRILLNKRLKDGSVPRDSGAMLGLKVVGGKMTESGRLCAFITKVKKGSLADTVGHLRPGDEVLEWNGRLLQGATFEEVYNIILESKPEPQVELVVSRPIG
notes: also called RIM-2 d1; RIM2 (177.4)
As for B3, the binding result is “binds”.
